Broadly, the Ki is the dissociation constant of the complex between target and ligand, obtained from inhibition or displacement.

The target of assay [1] is T1, cGMP-dependent protein kinase II (PKGII), recombinant (UniProt Q13237 1-762).
T1 construct: cGMP-dependent protein kinase II; also called cGK2; source: insect cell cultures, Bacmid baculovirus expression system, purified to apparent homogeneity
T1 sequence (looked up): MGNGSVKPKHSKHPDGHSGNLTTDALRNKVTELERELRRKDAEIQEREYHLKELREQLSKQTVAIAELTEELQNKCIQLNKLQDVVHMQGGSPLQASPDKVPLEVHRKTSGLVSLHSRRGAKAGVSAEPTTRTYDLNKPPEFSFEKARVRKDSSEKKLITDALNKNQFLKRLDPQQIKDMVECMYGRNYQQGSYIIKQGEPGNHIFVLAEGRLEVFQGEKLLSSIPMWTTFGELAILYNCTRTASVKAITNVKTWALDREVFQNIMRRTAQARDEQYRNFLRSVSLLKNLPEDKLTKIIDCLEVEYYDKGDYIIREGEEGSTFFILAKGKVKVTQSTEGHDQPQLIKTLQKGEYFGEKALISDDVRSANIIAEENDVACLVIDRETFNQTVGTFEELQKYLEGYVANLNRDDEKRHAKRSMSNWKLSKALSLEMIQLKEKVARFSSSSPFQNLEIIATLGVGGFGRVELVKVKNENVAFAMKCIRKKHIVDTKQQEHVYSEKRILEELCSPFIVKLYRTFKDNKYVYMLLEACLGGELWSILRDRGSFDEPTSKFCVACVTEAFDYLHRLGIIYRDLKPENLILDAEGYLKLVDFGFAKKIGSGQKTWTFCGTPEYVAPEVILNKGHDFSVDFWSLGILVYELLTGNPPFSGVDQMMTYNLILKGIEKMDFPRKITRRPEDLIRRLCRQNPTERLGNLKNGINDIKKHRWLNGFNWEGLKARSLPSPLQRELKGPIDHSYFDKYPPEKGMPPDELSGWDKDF
Description: kinase inhibition assay (Ki from enzyme kinetics); purified recombinant kinases with multiple concentrations of DT-2; saturating peptide substrate …; PKG isoforms activated with 1 μM cGMP; PKC activated with 50 μg/μL phospholipids and 100 ng/mL 12-O-tetradecanoylphorbol-13-acetate. The following applies: both partners purified.

For assay [2], the target named is T2, Recombinant protein kinase Cα (PKCα, human) (human, UniProt P17252 1-672).
T2 construct: protein kinase C alpha, human, recombinant; source: bought: Calbiochem
Described as above. The following applies: both partners purified.

Consider YGRKKRRQRRRPPLRKKKKKH (also called peptide DT-2) [DT-2], for which the Ki was 9.1 µM in assay [1] and 26.6 nM in assay [2].

The values are drawn from publication PMC2731736, “cGMP-dependent protein kinase Iα associates with the antidepressant-sensitive serotonin transporter and dictates rapid modulation of serotonin uptake” (Molecular Brain, 2009).
